Results reported in patent US20240400680A1 (SHANGHAI CELGEN BIO PHARMACEUTICAL, published 2024).

Key:
[1] = biological target: T1, full-length human TIGIT on the cell membrane (CHO-K-TIGIT cells; TIGIT-Jurkat cells) (human) (UniProt Q495A1); assay: cell-based or functional assay
T1 sequence (looked up): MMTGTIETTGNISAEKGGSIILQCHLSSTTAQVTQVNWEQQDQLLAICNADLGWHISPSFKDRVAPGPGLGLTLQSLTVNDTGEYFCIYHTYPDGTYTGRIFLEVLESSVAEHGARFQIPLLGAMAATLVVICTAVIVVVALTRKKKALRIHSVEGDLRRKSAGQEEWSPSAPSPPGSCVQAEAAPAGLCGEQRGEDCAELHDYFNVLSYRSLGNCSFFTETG

[2] = biological target: T2, full-length human TIGIT on the cell membrane (CHO-K-TIGIT cells; TIGIT-Jurkat cells) (human, UniProt Q495A1 22-244); assay: flow cytometry on TIGIT-Jurkat cells
T2 construct: whole, on cells; Also used here for TIGIT on human PBMCs in the IFN-gamma assay; also called CHO-TIGIT
T2 sequence (looked up): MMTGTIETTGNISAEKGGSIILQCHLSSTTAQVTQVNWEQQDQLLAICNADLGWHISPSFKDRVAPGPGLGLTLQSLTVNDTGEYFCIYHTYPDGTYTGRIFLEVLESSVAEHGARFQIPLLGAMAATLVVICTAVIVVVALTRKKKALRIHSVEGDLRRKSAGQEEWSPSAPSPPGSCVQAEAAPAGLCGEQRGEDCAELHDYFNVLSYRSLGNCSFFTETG
Procedure: The binding activity of the anti-TIGIT antibody-IL2 fusion proteins to TIGIT on the cell membrane was tested using flow cytometry. A Jurkat cell line stably expressing human TIGIT was first established. The full-length human TIGIT gene (Sinobio) was amplified by PCR and cloned into the mammalian cell expression vector pcDNA3.1 (Invitrogen), using Not I and Xba I as cloning enzymes. The TIGIT expression plasmid was transfected into Jurkat cells to construct a stable Jurkat cell line expressing TIGIT (TIGIT-Jurkat).
The flow cytometry study method for the binding of TIGIT antibody-IL2 fusion proteins to cell membrane-bound TIGIT is summarized as follows: FACS buffer (1×PBS+0.5% BSA solution) was prepared. The required number of TIGIT-Jurkat cells, about 1×10⁵ to 5×10⁵ cells per sample, was taken and incubated with HC1-IL2 wt/LC1 (ART-Ig) and HC1-IL2mut/LC1 (ART-Ig) diluted to a certain ratio in FACS buffer, approximately 100 μL, at 4° C. for 30 minutes. After washing the cells once with FACS buffer, they were resuspended in FITC-conjugated anti-human IgG (Abcam: 6854) diluted in FACS buffer and incubated at 4° C. for 30 minutes. Finally, after washing the cells with FACS buffer, they were resuspended in 200 μL of FACS buffer for analysis. The parent TIGIT antibody P03479 was used as a control.

[3] = biological target: T3, recombinant human TIGIT (Human TIGIT His, Sino Biological, 10917-H08H) (human, UniProt Q495A1 22-138); assay: ELISA on recombinant human TIGIT protein
T3 construct: range 1-138; Bought protein; also called recombinant human TIGIT antigen; recombinant human TIGIT protein; not shown: C-terminal histidine tag
T3 sequence (looked up): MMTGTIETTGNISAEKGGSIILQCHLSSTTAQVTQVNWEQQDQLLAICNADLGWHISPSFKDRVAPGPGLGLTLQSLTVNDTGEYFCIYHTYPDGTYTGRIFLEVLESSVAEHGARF

[4] = biological target: recombinant human TIGIT (Human TIGIT His, Sino Biological, 10917-H08H) (human) (UniProt Q495A1); assay: BLI (GATOR), antibody on human antibody capture probe, TIGIT-His 40-10 nM

Q: Tiragolumab (antibody) was tested. Which IFNγ release from PHA-activated PBMCs, increase [1] did it give?
A: 16%

B1: humanized anti-TIGIT monoclonal antibody P03479 (antibody, V domains shown)
VH: EVQVVESGGGLVKPGGSLRLSCAASGFTFSTYAMSWVRQAPGKGLEWVAEISSGGSHTFYADTVKGRFTISRDNAKNTLYLQMNSLRAEDTAVYYCARKTLDYYALDYWGQGTTVTVSS
VL: DVQITQSPSYLSASVGDRVTINCRASKSISKYLAWYQQKPGKAPKLLIYSGSRLQSGIPSRFSGSGYGTDFTLTISSLQPEDFATYYCQQHNEYPWTFGGGTKLEIK
notes: Only variable domains are tied to P03479 itself; HC1/LC1 of the fusion proteins derive from it
Q: How did the EC50 [2] turn out when B1 was run?
A: 0.26 µg/mL

B2: humanized anti-TIGIT monoclonal antibody P03489 (antibody, V domains shown)
VH: QVQLVQSGAEVKKPGASVKVSCKASGYTFISYNIYWVRQAPGQGLEWMGGVNPSNGNTNFNENFQGRVTMTVDTSISTAYMELSRLRSDDTAVYYCTRGNYYGYEFAYWGQGTTVTVSS
VL: DIQMTQSPSSMSASVGDRVTITCKASQHVSTAVAWYQQKPGKAPKLLIYSPSYRYTGVPSRFSGSGSGTDFTFTISSVQPEDIATYYCQQHYSTPWTFGGGTKLEIK
notes: Only variable domains are tied to P03489 itself; HC2/LC2 of the fusion proteins derive from it
Q: Which EC50 [3] does the source give for B2 here?
A: 0.5 nM

B3: human-mouse chimeric TIGIT monoclonal antibody 7103-07 (hFc) (antibody, from a related filing, V domains shown)
VH: EVQVVESGGGLVKPGGTLKLSCAASGFTFSTYAMSWVRQSPEQRLEWVAEISSGGSHTFYSDTVTGRFTISRDNAQNTLYLEMNSLRSEDTAMYYCARKTLDYYALDYWGQGTSVTVSS
VL: DVQITQSPSYLAASPGETITINCRASKSISKYLAWYQEKPGKTNKLLIYSGSRLQSGIPSKFSGSGYGTDFTLTISSLEPEDFAMYYCQQHNEYPWTFGGGTKVEIK
Q: Which results are given for B3?
A: Kd [4]: 2.96 nM; koff [4]: 0.00169 s⁻¹; kon [4]: 573000 M⁻¹ s⁻¹

B4: human-mouse chimeric TIGIT monoclonal antibody 7103-01 (hFc) (antibody, from a related filing, V domains shown)
VH: QVQLQQPGAELVKPGASVKLSCKASGYTFISYNIYWVKQRPGQGLEWIGGVNPSNGNTNFNENFKSKATLTVDKSSSTAYMQLSSLTSDDSAVYFCTRGNYYGYEFAYWGQGTLVTVSA
VL: DIVMTQSHKFMSTSVGDRVSITCKASQHVSTAVAWYQQKPGQSPKLLIYSPSYRYTGVPDRFTGSGSGTDFTFTISSVQAEDLAVYYCQQHYSTPWTFGGGTKLEIK
Q: B4 was tested. Which Kd [4] did it give?
A: 1.73 nM

Q: And the koff [4]?
A: 0.000951 s⁻¹

Q: What about the kon [4] of the same molecule?
A: 549000 M⁻¹ s⁻¹
